We go through two molecules from patent US20100279943A1 (RAMAT AT TEL AVIV UNIVERSITY, published 2010).

In this assay the target is T1, G93A-hSOD1-CFP (human, UniProt P00441 2-154, G93A).
T1 construct: Transiently expressed in NSC-34 cells; FRET donor; also called G93A SOD1-CFP; pECFP-G93A-hSOD1; not shown: CFP (from pECFP plasmid) attached to the C-terminus of SOD1
Description: FACS sorting of cells without G93A SOD1-CFP/MDH1-YFP FRET after transfection of the myc-tagged MDH1 peptide library.

T1 sequence (P00441 2-154 G94A): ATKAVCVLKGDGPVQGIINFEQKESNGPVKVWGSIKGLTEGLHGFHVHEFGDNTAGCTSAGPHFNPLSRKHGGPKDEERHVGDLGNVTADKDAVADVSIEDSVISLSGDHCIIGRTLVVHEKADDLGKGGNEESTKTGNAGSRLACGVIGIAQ

B1: myc-tagged peptide 14-27 of cytMDH (peptide)
peptide: GQIAHSLLYSIGNG
notes: Expressed from a plasmid inside NSC-34 cells; also called myc-tagged 14-27 peptide; not shown: human myc tag in frame with the peptide
For B1, the binding result is reported as “binds”.

B2: myc-tagged peptide 217-239 of cytMDH (peptide)
peptide: SWLKGEFITTVQQRGAAVIKARK
notes: Expressed from a plasmid inside NSC-34 cells; not shown: human myc tag in frame with the peptide
For the molecule B2, the binding result is recorded as “binds”.
